Consider one substance from PMC3006652.

The test deals with full-length UvsX (UvsX_(1–391)) (bacteriophage T4) (UniProt P04529). Nature of the test: non-reducing SDS PAGE.

Usually stoichiometry N stands for the number of molecules, sites or subunits per partner or assembly. Take “full-length UvsX (UvsX_(1–391)) (from UniProt P04529 1-391) (natural protein)”: the ratio of dimers and monomers under oxidizing conditions stood at 0.5; the stoichiometry N came out at 2.
